The source of these data is article doi:10.1101/2024.04.03.587999 (bioRxiv, 2024).

The target in the assay is T1, Outer membrane protein A of Acinetobacter baumannii (recombinant AbOmpA) (Acinetobacter baumannii, UniProt Q6RYW5 20-356).
T1 sequence (looked up): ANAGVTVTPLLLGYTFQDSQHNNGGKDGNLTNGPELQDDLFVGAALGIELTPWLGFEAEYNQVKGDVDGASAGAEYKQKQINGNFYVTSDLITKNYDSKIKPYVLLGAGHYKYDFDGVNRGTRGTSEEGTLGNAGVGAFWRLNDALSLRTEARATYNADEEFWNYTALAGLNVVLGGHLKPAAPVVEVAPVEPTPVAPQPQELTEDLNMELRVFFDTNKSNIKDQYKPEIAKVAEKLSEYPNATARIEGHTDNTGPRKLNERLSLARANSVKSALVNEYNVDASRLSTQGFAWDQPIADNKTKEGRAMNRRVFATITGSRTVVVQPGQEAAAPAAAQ
Nature of the assay: SPR. On the technique in general: Surface plasmon resonance follows binding to a sensor surface in real time, without labels.

What is called Kd is the constant that tells how readily two partners part at equilibrium. Turning to QMGFMTSPKHSV [P92], the dissociation constant (Kd) was found to be 7.84 nM.
